Consider 2 proteins from publication PMC11269473, “Monoamine oxidase inhibition properties of 2,1-benzisoxazole derivatives” (Molecular Diversity, 2023).

Substrate in data set [1]: NCCC(=O)c1ccccc1N
Nature of the data set: Lineweaver–Burk plots / mode of MAO-A inhibition and Ki. The data set is classed as biochemical, human. As to conditions: other: global (shared) fitting of the kinetic data; pH 7.4; 37.0 °C. As for the experimental part:
(§1) These two compounds represent potent MAO inhibitors among the study compounds. […] Each line of the Lineweaver–Burk plots was constructed with the kynuramine concentration ranging from 15 to 250 μM.
(§2) The insets are replots of the slopes of the Lineweaver–Burk plots versus inhibitor concentration. The Ki value equals the negative of the x-axis intercept when y = 0
(§3) IC50 values for the inhibition of MAO were measured as described previously. Microsomes from insect cells containing recombinant human MAO-A and MAO-B (5 mg protein/mL) served as enzyme sources (Sigma-Aldrich) while kynuramine was used as non-specific MAO substrate. The enzyme reactions (200 µL reactions prepared in 96-well microtiter plates) contained phosphate buffer (100 mM, pH 7.4), 50 µM kynuramine and the test inhibitors at concentrations of 0.003–100 µM. Stock solutions of the test inhibitors were dissolved in DMSO and added to the enzyme reactions to give a final DMSO concentration of 4% (v/v). […] The concentration of 4-hydroxyquinoline, the product of kynuramine oxidation by MAO, was measured by fluorescence spectrophotometry (λex = 310 nm; λem = 400 nm). […] IC50 values were estimated in triplicate determinations from these plots and are expressed as mean ± standard deviation (SD). […]

Substrate in data set [2]: NCCC(=O)c1ccccc1N
Nature of the data set: Lineweaver–Burk plots / mode of MAO-B inhibition and Ki. The data set is classed as biochemical, human. To be noted: other: global (shared) fitting of the kinetic data; pH 7.4; 37.0 °C. As for the experimental part:
as §1, §2, §3

B1: recombinant human MAO-A (Homo sapiens) (protein)
chain: MENQEKASIAGHMFDVVVIGGGISGLSAAKLLTEYGVSVLVLEARDRVGGRTYTIRNEHVDYVDVGGAYVGPTQNRILRLSKELGIETYKVNVSERLVQYVKGKTYPFRGAFPPVWNPIAYLDYNNLWRTIDNMGKEIPTDAPWEAQHADKWDKMTMKELIDKICWTKTARRFAYLFVNINVTSEPHEVSALWFLWYVKQCGGTTRIFSVTNGGQERKFVGGSGQVSERIMDLLGDQVKLNHPVTHVDQSSDNIIIETLNHEHYECKYVINAIPPTLTAKIHFRPELPAERNQLIQRLPMGAVIKCMMYYKEAFWKKKDYCGCMIIEDEDAPISITLDDTKPDGSLPAIMGFILARKADRLAKLHKEIRKKKICELYAKVLGSQEALHPVHYEEKNWCEEQYSGGCYTAYFPPGIMTQYGRVIRQPVGRIFFAGTETATKWSGYMEGAVEAGERAAREVLNGLGKVTEKDIWVQEPESKDVPAVEITHTFWERNLPSVSGLLKIIGFSTSVTALGFVLYKYKLLPRS
notes: purchased Sigma-Aldrich; host or cells: insect cells (microsomes)
As usually defined, the Km is the concentration of substrate that gives half-maximal velocity. As for B1, in data set [1], the Km was determined as 49.8 ± 3.07 µM and the Vmax came to 34.0 ± 0.80 nmol/min.mg protein.

B2: recombinant human MAO-B (Homo sapiens) (protein)
chain: MSNKCDVVVVGGGISGMAAAKLLHDSGLNVVVLEARDRVGGRTYTLRNQKVKYVDLGGSYVGPTQNRILRLAKELGLETYKVNEVERLIHHVKGKSYPFRGPFPPVWNPITYLDHNNFWRTMDDMGREIPSDAPWKAPLAEEWDNMTMKELLDKLCWTESAKQLATLFVNLCVTAETHEVSALWFLWYVKQCGGTTRIISTTNGGQERKFVGGSGQVSERIMDLLGDRVKLERPVIYIDQTRENVLVETLNHEMYEAKYVISAIPPTLGMKIHFNPPLPMMRNQMITRVPLGSVIKCIVYYKEPFWRKKDYCGTMIIDGEEAPVAYTLDDTKPEGNYAAIMGFILAHKARKLARLTKEERLKKLCELYAKVLGSLEALEPVHYEEKNWCEEQYSGGCYTTYFPPGILTQYGRVLRQPVDRIYFAGTETATHWSGYMEGAVEAGERAAREILHAMGKIPEDEIWQSEPESVDVPAQPITTTFLERHLPSVPGLLRLIGLTTIFSATALGFLAHKRGLLVRV
notes: as for B1
For B2, in data set [2], the Km is recorded as 32.4 ± 3.73 µM and the Vmax was 8.39 ± 0.28 nmol/min.mg protein.
